Laboratory results published in patent publication US10398755B2, “Clusterin pharmaceuticals and treatment methods using the same” (UNIVERSITY OF SOUTHERN CALIFORNIA, priority 2009, dated 2019).

How the values were obtained:
[1] = test system: pro-MMP-9, MMP-9, MMP-9-ΔC; test: In vitro protein binding assay (CLU-His pull-down, gelatin zymography), MMP-9 forms; set-up: species or system mouse
Procedure: (§1) (A) Recombinant proteins, Pro-MMP-9, MMP-9, MMP-9-ΔC, CLU-His were incubated together, and bound to agarose beads coupled or uncoupled with Anti-(His)6 antibody in two different binding buffers containing Brij 35 concentrations, 0.04% or 0.002%. MMPs bound to the beads were obtained by washing with the corresponding binding buffer to resolve on gelatin zymography. Three different volumes of each sample were loaded to compare the relative density. (B) Pro-MMP-9 bound to CLU coupled to agarose beads, prepared as in (A), was incubated in the presence or absence of APMA for 1 h at RT, prior to separation of beads (B) and supernatant (S) fractions, which were resolved by zymography. Arrow indicates MMP-9 processed by APMA.
(§2) A mixture of MMP-2, MMP-9, and C-terminal truncated MMP-9 (9-ΔC) was incubated with His-tagged CLU, used in a pull-down assay and resolved on a gelatin zymography gel. The input and bound samples were loaded in a series of dilution.
(§3) To make various processed forms of MMPs, pro-MMPs were incubated with 1 mM APMA in TSCB buffer at 37° C. for 4 h to make C-terminal truncated processed MMP-9 (MMP-9-ΔC) [Murphy, 1995]. CLU-His (2.5 μg) was incubated with mixture of 30-100 ng of pro-MMP-9, MMP-9, and MMP-9-ΔC, in the TSCB buffer with 0.002 or 0.04% Brij 35 for 1 h at 4° C. followed by additional incubation for 1.5 h with anti-His tag antibody-conjugated agarose beads. The beads were washed three times with the binding buffer, and dissolved in 1×SDS sample loading buffer. Relative amounts of bound MMPs were assessed on the gelatin zymography. In order to perform CLU binding domain analysis, pro-MMP-9 bound to CLU-coupled beads was prepared, as described above, and then divided into two aliquots. They were incubated with and without 1 mM APMA at RT for 1 h in TSCB buffer on the rotator. The beads (B) were spun down and solution (S) was separated. The beads were washed with TSCB and resuspended in SDS sample loading buffer. Equivalent volume of S and B fraction were subjected to gelatin zymography.
(§4) Next, we tested the interaction of secreted CLU using mouse recombinant proteins. We used purified recombinant proteins of MMP-2, MMP-9, and CLU that were secreted from a mouse myeloma cell line (NSO). All of the proteins were purchased from R&D Systems. A mixture of MMP-2, MMP-9, and C-terminal truncated MMP-9 (9-ΔC) was incubated with His-tagged CLU, and subjected to the pull-down assay, using 150 mM NaCl-containing binding buffer and anti-His tag antibody resins. Portions of the input samples (Input) and proteins bound to the antibody (Bound) were resolved on the gelatin zymography gel.
(§5) The recombinant CLU contains a (His)6-Tag at the C-terminus of the protein, which was used for pull-down experiments with anti-His tag antibody beads. It was previously reported that CLU also binds to MT6-MMP/mmp-25 and that the hemopexin domain in the MMP C-terminal region is required for their interaction (Matsuda et al., 2003). To use as an internal control for the binding experiment, we removed part of MMP-9 (MMP-9-ΔC) by promoting self-processing by APMA (4-aminophenylmercuric acetate) treatment. For the in vitro binding assay we mixed MMP-2, MMP-9, and MMP-9-ΔC (FIG. 7).
(§6) Since different detergent concentrations affected the extent of inhibition of MMP-9 activity by CLU, we tested whether detergents may influence the binding affinity of CLU for MMP-9. To test this possibility, CLU pull down assay was performed. […]

[2] = biological target: T1, pro-MMP-9, MMP-9, MMP-9-ΔC (Mus musculus, UniProt P41245); test: as above
T1 construct: mixture of 30-100 ng of pro-MMP-9, MMP-9, and MMP-9-ΔC; pro-MMP-9, propeptide-cleaved MMP-9 (MMP-9), and MMP-9 with both propeptide and C-terminal region cleaved (MMP-9-ΔC); MMP-9 with both propeptide and C-terminal region cleaved (MMP-9-ΔC); purchased R&D Systems; host or cells: mouse myeloma cell line (NSO)
T1 sequence (P41245 20-730, stated change not applied): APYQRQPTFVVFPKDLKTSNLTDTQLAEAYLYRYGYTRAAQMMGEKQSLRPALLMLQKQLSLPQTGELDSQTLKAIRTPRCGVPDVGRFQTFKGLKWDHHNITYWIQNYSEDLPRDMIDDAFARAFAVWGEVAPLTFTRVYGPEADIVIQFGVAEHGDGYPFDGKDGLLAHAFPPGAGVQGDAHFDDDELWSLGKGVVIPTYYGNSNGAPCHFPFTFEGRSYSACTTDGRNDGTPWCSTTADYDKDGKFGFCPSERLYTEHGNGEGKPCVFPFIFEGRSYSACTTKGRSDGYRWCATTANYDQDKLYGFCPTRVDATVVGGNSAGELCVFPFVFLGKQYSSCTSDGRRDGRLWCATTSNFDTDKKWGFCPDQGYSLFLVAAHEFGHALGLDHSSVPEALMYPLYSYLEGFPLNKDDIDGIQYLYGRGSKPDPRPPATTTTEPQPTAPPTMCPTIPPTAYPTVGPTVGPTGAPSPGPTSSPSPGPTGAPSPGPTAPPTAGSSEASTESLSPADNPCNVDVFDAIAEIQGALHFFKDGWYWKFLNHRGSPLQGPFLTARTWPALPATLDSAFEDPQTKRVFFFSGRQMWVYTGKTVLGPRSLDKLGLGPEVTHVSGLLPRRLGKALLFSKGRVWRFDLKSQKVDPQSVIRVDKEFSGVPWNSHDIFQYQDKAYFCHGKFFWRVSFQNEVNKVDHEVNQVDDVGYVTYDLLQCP
Procedure: as §1, §2, §3, §4, §5, §6

B1: CLU: secreted disulfide-linked heterodimeric glycoprotein (70-80 KD); assays used recombinant mouse CLU with C-terminal (His)6 (protein, UniProt Q06890 22-448, looked up)
Clusterin: EQEVSDNELQELSTQGSRYINKEIQNAVQGVKHIKTLIEKTNAERKSLLNSLEEAKKKKEDALEDTRDSEMKLKAFPEVCNETMMALWEECKPCLKHTCMKFYARVCRSGSGLVGQQLEEFLNQSSPFYFWMNGDRIDSLLESDRQQSQVLDAMQDSFARASGIIDTLFQDRFFARELHDPHYFSPIGFPHKRPHFLYPKSRLVRSLMSPSHYGPPSFHNMFQPFFEMIHQAQQAMDVQLHSPAFQFPDVDFLREGEDDRTVCKEIRRNSTGCLKMKGQCEKCQEILSVDCSTNNPAQANLRQELNDSLQVAERLTEQYKELLQSFQSKMLNTSSLLEQLNDQFNWVSQLANLTQGEDKYYLRVSTVTTHSSDSEVPSRVTEVVVKLFDSDPITVVLPEEVSKDNPKFMDTVAEKALQEYRRKSRAE
modifications: C-terminal His6 tag
- binding of MMP-9 and MMP-9-ΔC to CLU at high detergent ([1]; 0.04% Brij 35): do not bind to CLU at the high Brij 35 concentration
- binding of C-terminal truncated MMP-9 to His-tagged CLU ([1]; 150 mM NaCl binding buffer): did not
- binding of MMP-9 to His-tagged CLU (bound vs input) ([1]; 150 mM NaCl binding buffer): highly enriched in the bound sample
- sensitivity of pro-MMP-9 affinity for CLU to detergent concentration ([2]; 0.002% vs 0.04% Brij 35): not sensitive to the detergent concentration
- affinity of pro-MMP-9 for CLU relative to the other forms of MMP-9 ([2]; band densities, Image J): at least 10 times
